Results published in publication PMC3281051, “Probing High Affinity Sequences of DNA Aptamer against VEGF165”.

Tests used:
[1] = target: VEGF on HT-29 cells (human) (UniProt P15692); test: flow cytometry; conditions: hypoxia 1% O2, 37 C, scrambled signal subtracted, SPR (BIAcore 2000, CM5): PBS + 0.005% Tween-20, 25 C, 30 ul/min, aptamer 0.2-100 nM, 1:1 Langmuir fit, cells: culture medium, 2 h
VEGF165, human = VEGF165, human (Homo sapiens (Human), UniProt P15692 27-191); test: SPR; PBS, 0.005% Tween-20, 25 C; protein amine-coupled on CM5; conditions: chain copies: 2
Sequence of VEGF165, human (P15692 other isoform, or with tags, fused parts or gaps): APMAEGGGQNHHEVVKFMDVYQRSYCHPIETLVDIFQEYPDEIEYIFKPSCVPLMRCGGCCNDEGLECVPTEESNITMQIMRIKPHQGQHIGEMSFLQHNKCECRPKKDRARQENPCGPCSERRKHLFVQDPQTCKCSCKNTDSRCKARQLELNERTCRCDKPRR

VEGF165 = VEGF165 (human, UniProt P15692-4 27-191); test: SPR; SPR (BIAcore 2000, CM5): PBS + 0.005% Tween-20, 25 C, 30 ul/min, aptamer 0.2-100 nM, 1:1 Langmuir fit; cells: culture medium, 37 C, 2 h, 1% O2; conditions: protein: commercial, tags: carrier-free, chain copies: 2
VEGF121 = VEGF121 (human, UniProt P15692-9 27-147); test: as above; conditions: protein: commercial; tags: carrier-free; chain copies: 2; hairpin
Sequence of VEGF121 (P15692 other isoform, or with tags, fused parts or gaps): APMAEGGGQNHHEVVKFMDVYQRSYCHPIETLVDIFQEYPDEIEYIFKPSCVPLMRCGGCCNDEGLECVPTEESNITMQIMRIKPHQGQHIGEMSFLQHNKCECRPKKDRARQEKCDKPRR

Sequence of VEGF on HT-29 cells (human) (P15692 whole entry): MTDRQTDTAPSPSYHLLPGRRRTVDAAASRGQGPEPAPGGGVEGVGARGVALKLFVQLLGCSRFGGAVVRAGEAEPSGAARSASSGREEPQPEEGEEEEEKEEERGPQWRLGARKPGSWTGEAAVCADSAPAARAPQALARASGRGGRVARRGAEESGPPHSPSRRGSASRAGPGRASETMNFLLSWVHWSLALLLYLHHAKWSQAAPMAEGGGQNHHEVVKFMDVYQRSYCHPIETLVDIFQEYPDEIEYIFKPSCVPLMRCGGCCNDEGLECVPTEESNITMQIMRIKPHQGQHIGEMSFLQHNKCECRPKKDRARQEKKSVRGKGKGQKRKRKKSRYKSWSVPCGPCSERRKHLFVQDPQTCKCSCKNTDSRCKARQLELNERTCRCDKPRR

## CAATTGGGCCCGTCCGTATGGTGGGT [SL2-B Texas Red]
[1]
  Kd: 1 nM

B1: VEa5 (ssDNA)
DNA: ATACCAGTCTATTCAATTGGGCCCGTCCGTATGGTGGGTGTGCTGGCCAGATAGTATGTGCAATCA
VEGF165, human
  Kd: 120 ± 1.8 nM
VEGF165; 3 stem-loops (mfold)
  Kd: 120 ± 1.8 nM

B2: SL2 (ssDNA)
DNA: CCCGTCCGTATGGTGGG
VEGF165; hairpin
  Kd: 49 ± 2.4 nM

B3: SL2-A (ssDNA)
DNA: GCCCGTCCGTATGGTGGGT
VEGF165; hairpin
  Kd: 10 ± 1.1 nM

B4: SL2-B (ssDNA)
DNA: CAATTGGGCCCGTCCGTATGGTGGGT
VEGF121
  Kd: 10.2 ± 1.89 µM
VEGF165; hairpin
  Kd: 0.5 ± 0.32 nM

B5: SL1 (ssDNA)
DNA: ATACCAGTCTATTCAATTGG
VEGF165; hairpin
  binding result: no binding
